From patent publication US20150086555A1

How the values were obtained:
Conditions in all cases: remark: other sources report otherwise
[1] = molecular target: recombinant soluble homotrimeric HA of A/Anhui/1/05 (H5N1) (Influenza A virus A/Anhui/1/2005(H5N1)); experiment: HA microarray, BCC supernatant
[2] = molecular target: recombinant soluble homotrimeric HA of A/California/4/09 (H1N1) (Influenza A virus A/California/04/2009(H1N1)); experiment: HA microarray, BCC supernatant
[3] = molecular target: recombinant soluble homotrimeric HA of A/Egypt/3300-NAMRU3/08 (H5N1) (Influenza A virus A/Egypt/3300-NAMRU3/2008(H5N1)); experiment: HA microarray, BCC supernatant
[4] = molecular target: recombinant soluble homotrimeric HA of A/Hong Kong/2108/03 (H9N2) (Influenza A virus A/HK/2108/2003(H9N2)); experiment: HA microarray, BCC supernatant
[5] = molecular target: recombinant soluble homotrimeric HA of A/Indonesia/5/05 (H5N1) (Influenza A virus A/Indonesia/5/2005(H5N1)); experiment: HA microarray, BCC supernatant
[6] = molecular target: recombinant soluble homotrimeric HA of A/Japan/305/57 (H2N2) (Influenza A virus A/Japan/305/1957(H2N2)); experiment: HA microarray, BCC supernatant
[7] = molecular target: recombinant soluble homotrimeric HA of A/Netherlands/219/03 (H7N7) (Influenza A virus A/Netherlands/219/03(H7N7)); experiment: HA microarray, BCC supernatant
[8] = molecular target: recombinant soluble homotrimeric HA of A/Solomon Islands/3/06 (H1N1) (Influenza A virus A/Solomon Islands/3/2006(H1N1)); experiment: HA microarray, BCC supernatant
[9] = molecular target: recombinant soluble homotrimeric HA of A/Vietnam/1203/04 (H5N1) (Influenza A virus A/VietNam/1203/2004(H5N1)); experiment: HA microarray, BCC supernatant
[10] = molecular target: recombinant soluble homotrimeric HA of A/Wisconsin/67/05 (H3N2) (Influenza A virus A/Wisconsin/67/2005(H3N2)); experiment: HA microarray, BCC supernatant
[11] = molecular target: recombinant soluble homotrimeric HA of A/duck/Yangzhou/02/05 (H8N4) (Influenza A virus A/duck/Yangzhou/02/2005(H8N4)); experiment: HA microarray, BCC supernatant
[12] = molecular target: recombinant soluble homotrimeric HA, A/Anhui/1/05 H5N1 (Influenza A virus A/Anhui/1/2005(H5N1)); experiment: microarray, transfection SN IgG, trimeric HA
[13] = molecular target: recombinant soluble homotrimeric HA, A/California/4/09 H1N1 (Influenza A virus A/California/04/2009(H1N1)); experiment: microarray, transfection SN IgG, trimeric HA
[14] = molecular target: recombinant soluble homotrimeric HA, A/Hong Kong/156/97 H5N1 (Influenza A virus A/Hong Kong/156/97 (H5N1)); experiment: microarray, transfection SN IgG, trimeric HA
[15] = molecular target: recombinant soluble homotrimeric HA, A/Japan/305/57 H2N2 (Influenza A virus A/Japan/305/1957(H2N2)); experiment: microarray, transfection SN IgG, trimeric HA
[16] = molecular target: recombinant soluble homotrimeric HA, A/Solomon Islands/3/06 H1N1 (Influenza A virus A/Solomon Islands/3/2006(H1N1)); experiment: microarray, transfection SN IgG, trimeric HA
[17] = molecular target: recombinant soluble homotrimeric HA, A/South Carolina/1/18 H1N1 (Influenza A virus A/South Carolina/1/18 (H1N1)); experiment: microarray, transfection SN IgG, trimeric HA
[18] = molecular target: recombinant soluble homotrimeric HA, A/Vietnam/1203/04 H5N1 (Influenza A virus A/VietNam/1203/2004(H5N1)); experiment: microarray, transfection SN IgG, trimeric HA
[19] = molecular target: recombinant homotrimeric HA A/Anhui/1/05 H5N1 (Influenza A virus A/Anhui/1/2005(H5N1)); experiment: protein microarray, purified IgG, trimeric HA
[20] = molecular target: recombinant homotrimeric HA A/California/4/09 H1N1 (Influenza A virus A/California/04/2009(H1N1)); experiment: protein microarray, purified IgG, trimeric HA
[21] = molecular target: recombinant homotrimeric HA A/Egypt/3300-NAMRU3/08 H5N1 (Influenza A virus A/Egypt/3300-NAMRU3/2008(H5N1)); experiment: protein microarray, purified IgG, trimeric HA
[22] = molecular target: recombinant homotrimeric HA A/Hong Kong/156/97 H5N1 (Influenza A virus A/Hong Kong/156/97 (H5N1)); experiment: protein microarray, purified IgG, trimeric HA
[23] = molecular target: recombinant homotrimeric HA A/Indonesia/5/05 H5N1 (Influenza A virus A/Indonesia/5/2005(H5N1)); experiment: protein microarray, purified IgG, trimeric HA
[24] = molecular target: recombinant homotrimeric HA A/Japan/305/57 H2N2 (Influenza A virus A/Japan/305/1957(H2N2)); experiment: protein microarray, purified IgG, trimeric HA
[25] = molecular target: recombinant homotrimeric HA A/Netherlands/219/03 H7N7 (Influenza A virus A/Netherlands/219/03(H7N7)); experiment: protein microarray, purified IgG, trimeric HA
[26] = molecular target: recombinant homotrimeric HA A/Solomon Islands/3/06 H1N1 (Influenza A virus A/Solomon Islands/3/2006(H1N1)); experiment: protein microarray, purified IgG, trimeric HA
[27] = molecular target: recombinant homotrimeric HA A/South Carolina/1/18 H1N1 (Influenza A virus A/South Carolina/1/18 (H1N1)); experiment: protein microarray, purified IgG, trimeric HA
[28] = molecular target: recombinant homotrimeric HA A/Vietnam/1203/04 H5N1 (Influenza A virus A/VietNam/1203/2004(H5N1)); experiment: protein microarray, purified IgG, trimeric HA
[29] = molecular target: hemagglutinin (HA) of influenza A/Japan/305/57 (H2N2) on whole virions (Influenza A virus A/Japan/305/1957(H2N2)), P03451; experiment: ELISA; BCC supernatant on coated inactivated whole virions

B1: TCN-551 (5243_D01) (antibody, V domains shown)
VH: EVQLVQSGSEVKKPGESLKISCKGSGYSFSNYWIGWVRHMPGKGLEWMGIIYPGDSDTRYSPSFQGQVTMSADKSSSTVYLQWSSLKASDTAIYYCARRGGHSFGYGSGGDTHSEFDSWGQGTLVTVSS
VL: QSVLTQSPSVSAAPGQKVTISCSGSDSNIGDYFVCWYQHLPGKPPQLLIYENNKRPSGIPDRFSGSKSGTSATLGITGIQTGDEADYYCATWDGSLSAWVFGGGTKLTVL
Q: B1 was tested. Which Trimeric HA Binding: RLU [1] did it give?
A: The Trimeric HA Binding: RLU was 4190 RLU.

Q: And the Trimeric HA Binding: RLU [2]?
A: The Trimeric HA Binding: RLU was 53400 RLU.

Q: What about the Trimeric HA Binding: RLU [3] of the same binder?
A: Its Trimeric HA Binding: RLU is 47200 RLU.

Q: And the Trimeric HA Binding: RLU [4]?
A: Its Trimeric HA Binding: RLU is 224 RLU.

Q: What about the Trimeric HA Binding: RLU [5] of the same binder?
A: Its Trimeric HA Binding: RLU is 53500 RLU.

Q: And the Trimeric HA Binding: RLU [6]?
A: Its Trimeric HA Binding: RLU is 22600 RLU.

Q: And the Trimeric HA Binding: RLU [7]?
A: Its Trimeric HA Binding: RLU is 786 RLU.

Q: What about the Trimeric HA Binding: RLU [8] of the same binder?
A: Its Trimeric HA Binding: RLU is 53800 RLU.

Q: What about the Trimeric HA Binding: RLU [9] of the same binder?
A: Its Trimeric HA Binding: RLU is 4150 RLU.

Q: And the Trimeric HA Binding: RLU [10]?
A: The Trimeric HA Binding: RLU was 6840 RLU.

Q: What about the Trimeric HA Binding: RLU [11] of the same binder?
A: Its Trimeric HA Binding: RLU is 9820 RLU.

Q: And the Trimeric HA Binding: RLU [12]?
A: Its Trimeric HA Binding: RLU is 2640 RLU.

Q: What about the Trimeric HA Binding: RLU [13] of the same binder?
A: The Trimeric HA Binding: RLU was 46100 RLU.

Q: What about the Trimeric HA Binding: RLU [14] of the same binder?
A: Its Trimeric HA Binding: RLU is 792 RLU.

Q: And the Trimeric HA Binding: RLU [15]?
A: The Trimeric HA Binding: RLU was 25200 RLU.

Q: What about the Trimeric HA Binding: RLU [16] of the same binder?
A: Its Trimeric HA Binding: RLU is 43500 RLU.

Q: And the Trimeric HA Binding: RLU [17]?
A: Its Trimeric HA Binding: RLU is 4340 RLU.

Q: What about the Trimeric HA Binding: RLU [18] of the same binder?
A: The Trimeric HA Binding: RLU was 41900 RLU.

Q: What about the Trimeric HA Binding: RLU [19] of the same binder?
A: The Trimeric HA Binding: RLU was 6640 RLU.

Q: What about the Trimeric HA Binding: RLU [20] of the same binder?
A: The Trimeric HA Binding: RLU was 19400 RLU.

Q: And the Trimeric HA Binding: RLU [21]?
A: The Trimeric HA Binding: RLU was 907 RLU.

Q: And the Trimeric HA Binding: RLU [22]?
A: Its Trimeric HA Binding: RLU is 824 RLU.

Q: What about the Trimeric HA Binding: RLU [23] of the same binder?
A: The Trimeric HA Binding: RLU was 296 RLU.

Q: And the Trimeric HA Binding: RLU [24]?
A: The Trimeric HA Binding: RLU was 1600 RLU.

Q: What about the Trimeric HA Binding: RLU [25] of the same binder?
A: Its Trimeric HA Binding: RLU is 1670 RLU.

Q: What about the Trimeric HA Binding: RLU [26] of the same binder?
A: Its Trimeric HA Binding: RLU is 25000 RLU.

Q: What about the Trimeric HA Binding: RLU [27] of the same binder?
A: Its Trimeric HA Binding: RLU is 10300 RLU.

Q: What about the Trimeric HA Binding: RLU [28] of the same binder?
A: Its Trimeric HA Binding: RLU is 2950 RLU.

Q: And the ELISA virus binding (OD450) [29]?
A: The ELISA virus binding (OD450) was 0.19 OD450.
